Laboratory results: article PMC4226571, “The E6AP Binding Pocket of the HPV16 E6 Oncoprotein Provides a Docking Site for a Small Inhibitory Peptide Unrelated to E6AP, Indicating Druggability of E6” (PLoS ONE, 2014)

B1: wildtype HPV31 E6 fused to the VP16 transcriptional activation domain [human papillomavirus type 31] / pep11** fused to the GAL4 DNA binding domain (parent complex)
chain 1: MFKNPAERPRKLHELSSALEIPYDELRLNCVYCKGQLTETEVLDFAFTDLTIVYRDDTPHGVCTKCLRFYSKVSEFRWYRYSVYGTTLEKLTNKGICDLLIRCITCQRPLCPEEKQRHLDKKKRFHNIGGRWTGRCIACWRRPRTETQV
chain 2: KEKEEYNSNCSCIACIGLI

Variants of: B1
Test: mammalian two-hybrid; E6 constructs contain an additional flag-tag between E6 and the VP16-AD; RLA relative to pep11**-GAL4-BD + empty pACT set at 1.0; read off a plot

Variant | response [RLA]
chain 1 W78H | ~39
chain 1 W78A | ~1.2
